Ho/Con_2aH data for 22 molecules are collected here from patent US20150344570A1 (published 2015).

The assay has as its target FcγRIIa H (human, UniProt P12318 34-217). Kind of assay: SPR Biacore, captured antibody, FcγR analyte; vs GpH7-B3/GpL16-k0 = 100.

Chain of FcγRIIa H (P12318 34-217): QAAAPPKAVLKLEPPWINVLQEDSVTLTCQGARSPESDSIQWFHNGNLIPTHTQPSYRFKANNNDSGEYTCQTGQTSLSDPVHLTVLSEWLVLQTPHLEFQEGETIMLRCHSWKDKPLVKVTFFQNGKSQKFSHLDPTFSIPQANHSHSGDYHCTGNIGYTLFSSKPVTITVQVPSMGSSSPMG

B1: GpH7-B3 variant E333_09D/GpL16-k0 (antibody, human IgG1, kappa)
heavy: not shown
light: DIVMTQSPLSLPVTPGEPASISCQASESLVHSNRNTYLHWYLQKPGQSPQLLIYKVSNRFSGVPDRFSGSGSGTDFTLKISRVEAEDVGVYYCSQNTHVPPTFGQGTKVEIERTVAAPSVFIFPPSDEQLKSGTASVVCLLNNFYPREAKVQWKVDNALQSGNSQESVTEQDSKDSTYSLSSTLTLSKADYEKHKVYACEVTHQGLSSPVTKSFNRGEC
notes: also called Ho Ab E333_09D
Turning to B1, the Ho/Con_2aH was 103 % of control.

B2: GpH7-B3 variant K334_04F/GpL16-k0 (antibody, human IgG1, kappa)
heavy: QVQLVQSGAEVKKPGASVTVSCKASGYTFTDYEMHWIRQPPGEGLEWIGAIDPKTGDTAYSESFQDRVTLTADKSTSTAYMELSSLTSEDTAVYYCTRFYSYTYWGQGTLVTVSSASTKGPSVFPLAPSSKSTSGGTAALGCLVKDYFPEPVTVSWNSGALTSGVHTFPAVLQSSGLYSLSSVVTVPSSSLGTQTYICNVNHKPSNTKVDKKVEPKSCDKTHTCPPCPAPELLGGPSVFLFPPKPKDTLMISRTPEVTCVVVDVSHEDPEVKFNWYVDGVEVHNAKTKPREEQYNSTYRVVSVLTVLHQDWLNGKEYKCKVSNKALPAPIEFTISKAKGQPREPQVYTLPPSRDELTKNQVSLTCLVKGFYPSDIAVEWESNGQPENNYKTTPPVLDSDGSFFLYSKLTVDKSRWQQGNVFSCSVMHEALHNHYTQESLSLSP
light: DIVMTQSPLSLPVTPGEPASISCQASESLVHSNRNTYLHWYLQKPGQSPQLLIYKVSNRFSGVPDRFSGSGSGTDFTLKISRVEAEDVGVYYCSQNTHVPPTFGQGTKVEIERTVAAPSVFIFPPSDEQLKSGTASVVCLLNNFYPREAKVQWKVDNALQSGNSQESVTEQDSKDSTYSLSSTLTLSKADYEKHKVYACEVTHQGLSSPVTKSFNRGEC
notes: also called Ho Ab K334_04F
Regarding B2, the Ho/Con_2aH is 103 % of control.

B3: GpH7-B3 variant L235_20W/GpL16-k0 (antibody, human IgG1, kappa)
heavy: not shown
light: DIVMTQSPLSLPVTPGEPASISCQASESLVHSNRNTYLHWYLQKPGQSPQLLIYKVSNRFSGVPDRFSGSGSGTDFTLKISRVEAEDVGVYYCSQNTHVPPTFGQGTKVEIERTVAAPSVFIFPPSDEQLKSGTASVVCLLNNFYPREAKVQWKVDNALQSGNSQESVTEQDSKDSTYSLSSTLTLSKADYEKHKVYACEVTHQGLSSPVTKSFNRGEC
notes: also called Ho Ab L235_20W
As for B3, the Ho/Con_2aH was 112 % of control.

B4: GpH7-B3 variant L328_14T/GpL16-k0 (antibody, human IgG1, kappa)
heavy: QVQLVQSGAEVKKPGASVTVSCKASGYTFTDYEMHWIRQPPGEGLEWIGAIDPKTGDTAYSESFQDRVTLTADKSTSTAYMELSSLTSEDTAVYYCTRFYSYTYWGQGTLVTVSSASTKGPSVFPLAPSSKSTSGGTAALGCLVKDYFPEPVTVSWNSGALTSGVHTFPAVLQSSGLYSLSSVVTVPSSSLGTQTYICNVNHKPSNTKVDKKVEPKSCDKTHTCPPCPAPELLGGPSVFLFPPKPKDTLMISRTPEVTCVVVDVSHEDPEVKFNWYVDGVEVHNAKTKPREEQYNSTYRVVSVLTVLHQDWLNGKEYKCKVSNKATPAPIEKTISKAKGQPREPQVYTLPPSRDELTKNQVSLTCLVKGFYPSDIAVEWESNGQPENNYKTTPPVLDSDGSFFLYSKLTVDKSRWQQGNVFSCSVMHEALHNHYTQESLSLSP
light: DIVMTQSPLSLPVTPGEPASISCQASESLVHSNRNTYLHWYLQKPGQSPQLLIYKVSNRFSGVPDRFSGSGSGTDFTLKISRVEAEDVGVYYCSQNTHVPPTFGQGTKVEIERTVAAPSVFIFPPSDEQLKSGTASVVCLLNNFYPREAKVQWKVDNALQSGNSQESVTEQDSKDSTYSLSSTLTLSKADYEKHKVYACEVTHQGLSSPVTKSFNRGEC
notes: also called Ho Ab L328_14T
As to B4, the Ho/Con_2aH was 110 % of control.

B5: GpH7-B3 variant K334_08L/GpL16-k0 (antibody, human IgG1, kappa)
heavy: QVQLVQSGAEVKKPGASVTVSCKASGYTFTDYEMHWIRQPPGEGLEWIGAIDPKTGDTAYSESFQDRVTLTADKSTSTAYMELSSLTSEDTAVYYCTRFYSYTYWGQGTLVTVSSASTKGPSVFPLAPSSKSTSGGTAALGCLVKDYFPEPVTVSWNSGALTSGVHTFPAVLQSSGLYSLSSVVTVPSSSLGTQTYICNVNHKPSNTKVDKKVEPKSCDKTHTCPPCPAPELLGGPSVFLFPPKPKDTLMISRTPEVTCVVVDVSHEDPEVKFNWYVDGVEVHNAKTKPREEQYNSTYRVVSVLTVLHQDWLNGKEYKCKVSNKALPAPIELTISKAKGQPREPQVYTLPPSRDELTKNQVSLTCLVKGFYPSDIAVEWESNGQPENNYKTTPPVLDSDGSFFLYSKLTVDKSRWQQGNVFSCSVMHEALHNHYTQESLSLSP
light: DIVMTQSPLSLPVTPGEPASISCQASESLVHSNRNTYLHWYLQKPGQSPQLLIYKVSNRFSGVPDRFSGSGSGTDFTLKISRVEAEDVGVYYCSQNTHVPPTFGQGTKVEIERTVAAPSVFIFPPSDEQLKSGTASVVCLLNNFYPREAKVQWKVDNALQSGNSQESVTEQDSKDSTYSLSSTLTLSKADYEKHKVYACEVTHQGLSSPVTKSFNRGEC
notes: also called Ho Ab K334_08L
In the case of B5, the Ho/Con_2aH is 103 % of control.

B6: GpH7-B3 variant I336_06M/GpL16-k0 (antibody, human IgG1, kappa)
heavy: not shown
light: DIVMTQSPLSLPVTPGEPASISCQASESLVHSNRNTYLHWYLQKPGQSPQLLIYKVSNRFSGVPDRFSGSGSGTDFTLKISRVEAEDVGVYYCSQNTHVPPTFGQGTKVEIERTVAAPSVFIFPPSDEQLKSGTASVVCLLNNFYPREAKVQWKVDNALQSGNSQESVTEQDSKDSTYSLSSTLTLSKADYEKHKVYACEVTHQGLSSPVTKSFNRGEC
notes: also called Ho Ab I336_06M
Consider B6, for which the Ho/Con_2aH is 100 % of control.

B7: GpH7-B3 variant K334_16H/GpL16-k0 (antibody, human IgG1, kappa)
heavy: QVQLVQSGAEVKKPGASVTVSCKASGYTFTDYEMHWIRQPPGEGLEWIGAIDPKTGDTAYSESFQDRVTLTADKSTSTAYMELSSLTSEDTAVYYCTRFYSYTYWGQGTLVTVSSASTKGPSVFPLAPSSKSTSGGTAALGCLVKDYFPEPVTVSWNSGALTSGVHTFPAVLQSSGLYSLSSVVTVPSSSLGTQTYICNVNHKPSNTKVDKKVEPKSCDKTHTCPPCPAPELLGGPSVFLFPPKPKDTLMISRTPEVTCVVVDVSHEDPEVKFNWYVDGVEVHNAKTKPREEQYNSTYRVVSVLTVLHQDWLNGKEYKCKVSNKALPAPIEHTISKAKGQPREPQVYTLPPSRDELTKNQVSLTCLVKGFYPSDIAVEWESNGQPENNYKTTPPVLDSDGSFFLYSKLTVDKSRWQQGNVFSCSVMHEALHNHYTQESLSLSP
light: DIVMTQSPLSLPVTPGEPASISCQASESLVHSNRNTYLHWYLQKPGQSPQLLIYKVSNRFSGVPDRFSGSGSGTDFTLKISRVEAEDVGVYYCSQNTHVPPTFGQGTKVEIERTVAAPSVFIFPPSDEQLKSGTASVVCLLNNFYPREAKVQWKVDNALQSGNSQESVTEQDSKDSTYSLSSTLTLSKADYEKHKVYACEVTHQGLSSPVTKSFNRGEC
notes: also called Ho Ab K334_16H
Turning to B7, the Ho/Con_2aH is 101 % of control.

B8: GpH7-B3 variant G236_07I/GpL16-k0 (antibody, human IgG1, kappa)
heavy: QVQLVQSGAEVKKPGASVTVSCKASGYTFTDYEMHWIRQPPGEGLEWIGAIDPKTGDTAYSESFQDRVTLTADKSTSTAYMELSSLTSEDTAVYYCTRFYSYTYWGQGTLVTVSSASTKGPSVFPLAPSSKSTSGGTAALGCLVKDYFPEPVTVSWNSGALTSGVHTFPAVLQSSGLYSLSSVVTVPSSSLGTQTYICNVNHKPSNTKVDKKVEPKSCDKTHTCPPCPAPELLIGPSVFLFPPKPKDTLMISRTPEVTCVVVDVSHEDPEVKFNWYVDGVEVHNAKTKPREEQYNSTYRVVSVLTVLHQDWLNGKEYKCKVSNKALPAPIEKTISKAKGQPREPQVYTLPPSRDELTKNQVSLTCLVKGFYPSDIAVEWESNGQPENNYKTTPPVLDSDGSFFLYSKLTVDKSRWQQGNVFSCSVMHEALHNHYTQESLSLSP
light: DIVMTQSPLSLPVTPGEPASISCQASESLVHSNRNTYLHWYLQKPGQSPQLLIYKVSNRFSGVPDRFSGSGSGTDFTLKISRVEAEDVGVYYCSQNTHVPPTFGQGTKVEIERTVAAPSVFIFPPSDEQLKSGTASVVCLLNNFYPREAKVQWKVDNALQSGNSQESVTEQDSKDSTYSLSSTLTLSKADYEKHKVYACEVTHQGLSSPVTKSFNRGEC
notes: also called Ho Ab G236_07I
Take B8: the Ho/Con_2aH is 101 % of control.

B9: GpH7-B3 variant H268_19Q/GpL16-k0 (antibody, human IgG1, kappa)
heavy: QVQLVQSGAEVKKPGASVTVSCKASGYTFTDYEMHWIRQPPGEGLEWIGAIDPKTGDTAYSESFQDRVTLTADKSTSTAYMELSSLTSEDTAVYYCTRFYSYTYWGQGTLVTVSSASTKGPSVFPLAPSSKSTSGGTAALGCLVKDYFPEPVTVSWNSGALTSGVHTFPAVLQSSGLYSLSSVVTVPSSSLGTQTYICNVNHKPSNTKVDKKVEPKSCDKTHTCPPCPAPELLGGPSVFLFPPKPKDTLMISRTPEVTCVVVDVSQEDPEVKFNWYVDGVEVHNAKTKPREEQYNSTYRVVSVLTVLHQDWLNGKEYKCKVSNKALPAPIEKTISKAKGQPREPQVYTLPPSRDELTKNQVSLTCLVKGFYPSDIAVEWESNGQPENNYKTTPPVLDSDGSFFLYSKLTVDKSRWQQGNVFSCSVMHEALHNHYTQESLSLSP
light: DIVMTQSPLSLPVTPGEPASISCQASESLVHSNRNTYLHWYLQKPGQSPQLLIYKVSNRFSGVPDRFSGSGSGTDFTLKISRVEAEDVGVYYCSQNTHVPPTFGQGTKVEIERTVAAPSVFIFPPSDEQLKSGTASVVCLLNNFYPREAKVQWKVDNALQSGNSQESVTEQDSKDSTYSLSSTLTLSKADYEKHKVYACEVTHQGLSSPVTKSFNRGEC
notes: also called Ho Ab H268_19Q
As to B9, the Ho/Con_2aH is 102 % of control.

B10: GpH7-B3 variant S239_09D/GpL16-k0 (antibody, human IgG1, kappa)
heavy: not shown
light: DIVMTQSPLSLPVTPGEPASISCQASESLVHSNRNTYLHWYLQKPGQSPQLLIYKVSNRFSGVPDRFSGSGSGTDFTLKISRVEAEDVGVYYCSQNTHVPPTFGQGTKVEIERTVAAPSVFIFPPSDEQLKSGTASVVCLLNNFYPREAKVQWKVDNALQSGNSQESVTEQDSKDSTYSLSSTLTLSKADYEKHKVYACEVTHQGLSSPVTKSFNRGEC
notes: also called Ho Ab S239_09D
As for B10, the Ho/Con_2aH is 112 % of control.

B11: GpH7-B3 variant H268_18N/GpL16-k0 (antibody, human IgG1, kappa)
heavy: not shown
light: DIVMTQSPLSLPVTPGEPASISCQASESLVHSNRNTYLHWYLQKPGQSPQLLIYKVSNRFSGVPDRFSGSGSGTDFTLKISRVEAEDVGVYYCSQNTHVPPTFGQGTKVEIERTVAAPSVFIFPPSDEQLKSGTASVVCLLNNFYPREAKVQWKVDNALQSGNSQESVTEQDSKDSTYSLSSTLTLSKADYEKHKVYACEVTHQGLSSPVTKSFNRGEC
notes: also called Ho Ab H268_18N
Turning to B11, the Ho/Con_2aH is 110 % of control.

B12: GpH7-B3 variant H268_02A/GpL16-k0 (antibody, human IgG1, kappa)
heavy: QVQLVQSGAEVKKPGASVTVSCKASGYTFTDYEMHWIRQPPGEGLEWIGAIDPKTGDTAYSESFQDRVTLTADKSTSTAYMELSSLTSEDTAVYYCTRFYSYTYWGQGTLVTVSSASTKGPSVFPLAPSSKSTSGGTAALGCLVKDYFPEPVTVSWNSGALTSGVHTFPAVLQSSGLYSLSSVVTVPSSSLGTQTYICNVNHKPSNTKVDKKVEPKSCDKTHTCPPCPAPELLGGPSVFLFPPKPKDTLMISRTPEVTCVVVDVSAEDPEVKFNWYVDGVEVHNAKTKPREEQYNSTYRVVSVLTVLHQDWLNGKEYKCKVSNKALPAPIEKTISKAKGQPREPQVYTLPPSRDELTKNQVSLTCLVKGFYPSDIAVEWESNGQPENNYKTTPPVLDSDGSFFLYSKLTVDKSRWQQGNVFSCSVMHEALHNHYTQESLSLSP
light: DIVMTQSPLSLPVTPGEPASISCQASESLVHSNRNTYLHWYLQKPGQSPQLLIYKVSNRFSGVPDRFSGSGSGTDFTLKISRVEAEDVGVYYCSQNTHVPPTFGQGTKVEIERTVAAPSVFIFPPSDEQLKSGTASVVCLLNNFYPREAKVQWKVDNALQSGNSQESVTEQDSKDSTYSLSSTLTLSKADYEKHKVYACEVTHQGLSSPVTKSFNRGEC
notes: also called Ho Ab H268_02A
On to B12, for which the Ho/Con_2aH is 111 % of control.

B13: GpH7-B3 variant S267_02A/GpL16-k0 (antibody, human IgG1, kappa)
heavy: not shown
light: DIVMTQSPLSLPVTPGEPASISCQASESLVHSNRNTYLHWYLQKPGQSPQLLIYKVSNRFSGVPDRFSGSGSGTDFTLKISRVEAEDVGVYYCSQNTHVPPTFGQGTKVEIERTVAAPSVFIFPPSDEQLKSGTASVVCLLNNFYPREAKVQWKVDNALQSGNSQESVTEQDSKDSTYSLSSTLTLSKADYEKHKVYACEVTHQGLSSPVTKSFNRGEC
notes: also called Ho Ab S267_02A
Take B13: the Ho/Con_2aH was 120 % of control.

B14: GpH7-B3 variant L235_15Y/GpL16-k0 (antibody, human IgG1, kappa)
heavy: not shown
light: DIVMTQSPLSLPVTPGEPASISCQASESLVHSNRNTYLHWYLQKPGQSPQLLIYKVSNRFSGVPDRFSGSGSGTDFTLKISRVEAEDVGVYYCSQNTHVPPTFGQGTKVEIERTVAAPSVFIFPPSDEQLKSGTASVVCLLNNFYPREAKVQWKVDNALQSGNSQESVTEQDSKDSTYSLSSTLTLSKADYEKHKVYACEVTHQGLSSPVTKSFNRGEC
notes: also called Ho Ab L235_15Y
On to B14, for which the Ho/Con_2aH is 107 % of control.

B15: GpH7-B3 variant I336_08L/GpL16-k0 (antibody, human IgG1, kappa)
heavy: not shown
light: DIVMTQSPLSLPVTPGEPASISCQASESLVHSNRNTYLHWYLQKPGQSPQLLIYKVSNRFSGVPDRFSGSGSGTDFTLKISRVEAEDVGVYYCSQNTHVPPTFGQGTKVEIERTVAAPSVFIFPPSDEQLKSGTASVVCLLNNFYPREAKVQWKVDNALQSGNSQESVTEQDSKDSTYSLSSTLTLSKADYEKHKVYACEVTHQGLSSPVTKSFNRGEC
notes: also called Ho Ab I336_08L
In the case of B15, the Ho/Con_2aH is 101 % of control.

B16: GpH7-B3 variant K326_10E/GpL16-k0 (antibody, human IgG1, kappa)
heavy: not shown
light: DIVMTQSPLSLPVTPGEPASISCQASESLVHSNRNTYLHWYLQKPGQSPQLLIYKVSNRFSGVPDRFSGSGSGTDFTLKISRVEAEDVGVYYCSQNTHVPPTFGQGTKVEIERTVAAPSVFIFPPSDEQLKSGTASVVCLLNNFYPREAKVQWKVDNALQSGNSQESVTEQDSKDSTYSLSSTLTLSKADYEKHKVYACEVTHQGLSSPVTKSFNRGEC
notes: also called Ho Ab K326_10E
As for B16, the Ho/Con_2aH was 101 % of control.

B17: GpH7-B3 variant L235_04F/GpL16-k0 (antibody, human IgG1, kappa)
heavy: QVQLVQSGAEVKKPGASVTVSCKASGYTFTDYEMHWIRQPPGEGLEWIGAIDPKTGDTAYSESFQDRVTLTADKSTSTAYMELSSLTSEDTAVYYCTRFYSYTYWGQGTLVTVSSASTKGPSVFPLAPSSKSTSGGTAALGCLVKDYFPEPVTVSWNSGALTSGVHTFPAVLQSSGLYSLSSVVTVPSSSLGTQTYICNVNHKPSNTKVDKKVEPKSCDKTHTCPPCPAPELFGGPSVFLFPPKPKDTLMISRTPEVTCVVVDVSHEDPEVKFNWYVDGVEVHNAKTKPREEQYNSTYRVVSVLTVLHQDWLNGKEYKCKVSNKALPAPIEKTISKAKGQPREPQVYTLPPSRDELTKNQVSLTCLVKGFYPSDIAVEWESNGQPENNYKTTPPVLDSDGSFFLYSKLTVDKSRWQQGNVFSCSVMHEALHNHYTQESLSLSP
light: DIVMTQSPLSLPVTPGEPASISCQASESLVHSNRNTYLHWYLQKPGQSPQLLIYKVSNRFSGVPDRFSGSGSGTDFTLKISRVEAEDVGVYYCSQNTHVPPTFGQGTKVEIERTVAAPSVFIFPPSDEQLKSGTASVVCLLNNFYPREAKVQWKVDNALQSGNSQESVTEQDSKDSTYSLSSTLTLSKADYEKHKVYACEVTHQGLSSPVTKSFNRGEC
notes: also called Ho Ab L235_04F
As for B17, the Ho/Con_2aH is 101 % of control.

B18: GpH7-B3 variant G236_03V/GpL16-k0 (antibody, human IgG1, kappa)
heavy: not shown
light: DIVMTQSPLSLPVTPGEPASISCQASESLVHSNRNTYLHWYLQKPGQSPQLLIYKVSNRFSGVPDRFSGSGSGTDFTLKISRVEAEDVGVYYCSQNTHVPPTFGQGTKVEIERTVAAPSVFIFPPSDEQLKSGTASVVCLLNNFYPREAKVQWKVDNALQSGNSQESVTEQDSKDSTYSLSSTLTLSKADYEKHKVYACEVTHQGLSSPVTKSFNRGEC
notes: also called Ho Ab G236_03V
Turning to B18, the Ho/Con_2aH was 111 % of control.

B19: GpH7-B3 variant K326_19Q/GpL16-k0 (antibody, human IgG1, kappa)
heavy: not shown
light: DIVMTQSPLSLPVTPGEPASISCQASESLVHSNRNTYLHWYLQKPGQSPQLLIYKVSNRFSGVPDRFSGSGSGTDFTLKISRVEAEDVGVYYCSQNTHVPPTFGQGTKVEIERTVAAPSVFIFPPSDEQLKSGTASVVCLLNNFYPREAKVQWKVDNALQSGNSQESVTEQDSKDSTYSLSSTLTLSKADYEKHKVYACEVTHQGLSSPVTKSFNRGEC
notes: also called Ho Ab K326_19Q
In the case of B19, the Ho/Con_2aH was 100 % of control.

B20: GpH7-B3 variant L328_06M/GpL16-k0 (antibody, human IgG1, kappa)
heavy: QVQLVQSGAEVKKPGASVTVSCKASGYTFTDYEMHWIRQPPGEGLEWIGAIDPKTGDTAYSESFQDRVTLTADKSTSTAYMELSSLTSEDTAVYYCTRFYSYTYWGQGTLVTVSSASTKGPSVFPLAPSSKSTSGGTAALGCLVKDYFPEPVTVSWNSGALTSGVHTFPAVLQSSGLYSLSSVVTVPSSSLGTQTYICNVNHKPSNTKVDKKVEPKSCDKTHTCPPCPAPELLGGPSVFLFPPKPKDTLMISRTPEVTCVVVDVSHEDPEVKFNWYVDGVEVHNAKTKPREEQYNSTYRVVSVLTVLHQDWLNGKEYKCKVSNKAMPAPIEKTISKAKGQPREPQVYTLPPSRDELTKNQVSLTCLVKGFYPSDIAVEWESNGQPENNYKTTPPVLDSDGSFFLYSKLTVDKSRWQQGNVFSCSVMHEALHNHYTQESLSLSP
light: DIVMTQSPLSLPVTPGEPASISCQASESLVHSNRNTYLHWYLQKPGQSPQLLIYKVSNRFSGVPDRFSGSGSGTDFTLKISRVEAEDVGVYYCSQNTHVPPTFGQGTKVEIERTVAAPSVFIFPPSDEQLKSGTASVVCLLNNFYPREAKVQWKVDNALQSGNSQESVTEQDSKDSTYSLSSTLTLSKADYEKHKVYACEVTHQGLSSPVTKSFNRGEC
notes: also called Ho Ab L328_06M
For the molecule B20, the Ho/Con_2aH is 100 % of control.

B21: GpH7-B3 variant K326_06M/GpL16-k0 (antibody, human IgG1, kappa)
heavy: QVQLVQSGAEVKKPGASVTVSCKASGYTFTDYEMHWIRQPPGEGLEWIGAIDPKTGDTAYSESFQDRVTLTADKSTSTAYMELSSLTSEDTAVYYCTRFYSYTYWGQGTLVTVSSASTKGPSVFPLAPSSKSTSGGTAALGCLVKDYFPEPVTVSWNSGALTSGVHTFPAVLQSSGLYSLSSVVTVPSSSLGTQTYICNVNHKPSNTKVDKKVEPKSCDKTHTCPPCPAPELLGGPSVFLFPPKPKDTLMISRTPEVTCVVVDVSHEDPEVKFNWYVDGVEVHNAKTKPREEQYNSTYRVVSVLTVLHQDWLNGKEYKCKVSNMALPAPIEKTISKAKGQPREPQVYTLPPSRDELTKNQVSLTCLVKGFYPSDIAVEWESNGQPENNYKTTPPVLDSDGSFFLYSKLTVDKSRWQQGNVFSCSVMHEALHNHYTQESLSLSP
light: DIVMTQSPLSLPVTPGEPASISCQASESLVHSNRNTYLHWYLQKPGQSPQLLIYKVSNRFSGVPDRFSGSGSGTDFTLKISRVEAEDVGVYYCSQNTHVPPTFGQGTKVEIERTVAAPSVFIFPPSDEQLKSGTASVVCLLNNFYPREAKVQWKVDNALQSGNSQESVTEQDSKDSTYSLSSTLTLSKADYEKHKVYACEVTHQGLSSPVTKSFNRGEC
notes: also called Ho Ab K326_06M
On to B21, for which the Ho/Con_2aH was 101 % of control.

B22: GpH7-B3 variant L328_20W/GpL16-k0 (antibody, human IgG1, kappa)
heavy: not shown
light: DIVMTQSPLSLPVTPGEPASISCQASESLVHSNRNTYLHWYLQKPGQSPQLLIYKVSNRFSGVPDRFSGSGSGTDFTLKISRVEAEDVGVYYCSQNTHVPPTFGQGTKVEIERTVAAPSVFIFPPSDEQLKSGTASVVCLLNNFYPREAKVQWKVDNALQSGNSQESVTEQDSKDSTYSLSSTLTLSKADYEKHKVYACEVTHQGLSSPVTKSFNRGEC
notes: also called Ho Ab L328_20W
For the molecule B22, the Ho/Con_2aH was 112 % of control.
